According to PMC4750872:

Molecular target: gankyrin (UniProt O75832)
Assay: ITC

Chain of UniProt O75832 (O75832 whole entry): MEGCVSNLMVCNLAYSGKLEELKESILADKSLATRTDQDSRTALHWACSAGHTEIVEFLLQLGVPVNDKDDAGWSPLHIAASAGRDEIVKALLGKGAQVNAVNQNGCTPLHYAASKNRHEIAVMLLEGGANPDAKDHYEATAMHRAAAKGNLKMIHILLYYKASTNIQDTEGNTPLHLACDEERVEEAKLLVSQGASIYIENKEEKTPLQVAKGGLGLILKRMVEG

FtsH-S6 ATPase gave a dH of -29 kcal/mol.
